Measured values reported in the DeepSol protein solubility set.

Test: soluble on expression in E. coli; label from the status in PepcDB or PDB records

Row | Sequence | soluble on expression in E. coli
1 | MGSDKIHHHHHHMKKIRFAAIGLAHNHIYDMCQQLIDAGAELAGVFESDSDNRAKFTSLFPSVPFAASAEQLITDASIDLIACAVIPCDRAELALRTLDAGKDFFTAKPPLTTLEQLDAVQRRVAETGRKFAVYFNERINVDSALFAGELVQRGEIGRVIQTMGVGPHRERGARPDWFYQKRQYGGILCDIGIHQIEQFLYFTGNTNARVVTSQTANYHHPHHPEFEDFGDAMLLGDNGATGYFRCDWFTPDGLSVWGDGRLTILGTEGYIEIRKYVDLTRGESNVVYLVNGKGEQRFTPAGSVERAFFPDFLRDCRERTENAMSQSHIFKATELSILAQQAANKIA | not soluble
2 | MGSDKIHHHHHHMCSPTNFLYEPFSSDAVTQNYDQNLKCTKCGAYYSMACSLREQNVWTCLFCNQSNSNAELPLVPSNTYTLTSAKKEILSRRTIMIIDAICDPHELNYLVSILCNNYITRQQEPLSIITIQQSGHVILHNAVNHRRDAVFSINEFMTKYNLDKLNASYFEKKISEINQESYWFDKSTQGSLRKLLREICKIANKVNISSKRDKRCTGLALFVSSVLASQCSLSAYCHIVSFLNGPCTKGGGKVMSRERGESMRQNHHFESKSSQLQLSKSPTKFYKKMLEKFANQSLIYEFFIASLDQIGILEMSPLITSSMAVSQFDSFNDERFAMSFQKYLNLRDHNAIYNCHSKIMTAKNAIVVKDFPKYSLNPKNLSLPLEISLGHNSAEAPIQFQTTFENQTEKYIRIETLLLPKANRSFGAQNEIVFSMKKIASRIIDSFAYSSKHTKELMKQLFLLPNQIRGKDVDMVNLIQWCYHIYRSPILSVRNTSPDERYLFLHRIINASKDTCLSLCKPFIWSYSDLKHDWIVLDVPLTRAQILQDDKTTICVDGGSYLVLRRGKLLEKEGRELCCKLLNDLQRFPQPLYVETKTGGSQDRFLKSKIIPLDITDKETLGTEDMTFNEYFNLFTDLSGSK | not soluble
3 | MSLKEANLLIDLRGEPGINCNGFCKFCYFRKVNKNNPQPFGCRYCQFTVGCDYCMYSVREINGDFIPLPFALMELQSSLLFKRYSKVNLTAGGDVSCYPQLEELCKAINNIGLKIHLGYTSGKGFDNVEIAKNLVDYGVDEVTFSVFSTNPKLRKEWMNDKNAETALKCLRYFCENCEVHCAIIVIPGVNDGEELKKTVSDLVDWGANAVILMRFANSEEQGLILGNAPLIEGIKPHSVEEFKNIVDEIHNEFGDYIRVTGTPLHDPVAGTPFALAKEENSHILERLKDKINGEATIITGNVAYPFLKKIFDETSVNVVKVNKDIADLITAKDLEKLDLKDVKETVFIPPKAFVHDRVAEEILRRDGVDRIVVRGVEQLTLDGEVSGIYTREEALKFEIEAFEELIGMINFFGMKKQEGHHHHHH | soluble
4 | MEEEEYEQIPQENPPEELSQDPVLELSGGLREKEQKTPRRLRLILMGKTGSGKSATGNSILGRDVFESKLSTRPVTKTSQRRSREWAGKELEVIDTPNILSPQVSPEVADAICQAIVLSAPGPHAVLLVTQLGRFTDEDQQVVRRLQEVFGVGVLGHTILVFTRKEDLAGGSLEDYVRETNNQALAWLDVTLARRHCGFNNRAQGEEQEAQLRELMEKVEAIMWENEGDYYSNKAYQYTQQNFRLKELQERQVSQGQGSEDVPGEESWLEGLSQIQKESEEAHRCLLGKADL | soluble
5 | MEHIYKLLRSFKWDCAKYLYKNTLNFKVKRLRRKKNIRVLFAVAESATWKSDCLYKAMAEHPRFTPSILVLPDEQKEKTLLKEEVDSCFNLFCRKGYACTYPYQNGKLINIRKKLKPDIIFYQKPYTFYPKSLLYYKNMNALFCYTNYAFHSLLTDWANDNEFFRLMWQNYYENESANVDLKKKFAGIFSNIVVTGLPVTDLFLTEKHEDKWKKTDKSRKRIIWAPHFSISDGGCLNYSTFLSIAEELLEFIKNTQLPVQMAFKPHPLLKSQLYNYSSWGKEKTDEYYAAWEFLPNAQLETNEYVDLFMTSDAMIHDCGSFTIEYHHTLKPVMYLVNGKEHTATMNSFAKAAYDLHYKGQTIQDIRNFIECTVLENSDYLLEKRKNFFKSYLLPPHNQSATENIIHAILGTGYYTEKKQR | not soluble
6 | KRLQQKIEKGELDRMPEVKEADIECCGQHEVCEKDSLLAAVSKKIEYYDDEELDQFIGKEANAYTDEETNQFRDVLYTMQDIDVAGWVRSLQLRGIELPDDLKDEVFLIIGERRNG | soluble
7 | MHHIETTKLSRRAFLKKLTRTSFSAALMMAAASGYARWIEPAELTVTHHALSHPLIPKSFAGVKLLQFSDLHLGHYYGLERFYRIMGRINELGPDLVVFTGDLLHEANRYPHVDAVAEALAGVRAPLGKFCIYGNHDHGGYGTDIYRRLMERAGFRVLVNEHALVRRGHGAIAIAGSDDMMLGRPDWSKMTNGIPRATYTIALVHEPDGAIEARRFPIHVQLSGHSHGGQIQLPFIGPLITPPLSERYYEGFYHVGGLLLYVNRGLGTTRVPLRFFAPPELTVFSLAPG | not soluble
8 | GEGSPVGIAILGYGTVGSQVLRLLTENHNDFQHRAGGPLEIKGVAASSVEKHRGSLADQLGLLTDDARSLIARDDVDIVVEVIGGIDYPRELILEALHSGKSVVTANKALVAAHSEELAAAADEAGVDLYFEAAVAAAIPVLGPLRRSLAGDQIQSVAGIVNGTTNFILDAMDSTGASYDDMLAEATRLGYAEADPTADVEGHDAASKAAILASLAFHTRVTYADVYCEGISKITADDINAAKEAGFTIKLLAICERLNVDGVEKVSARVHPTLVPRNHPLASVDKSFNAIFVEAEAAGRLMFYGNGAGGNPTASAVLGDIVGAARNKVFGGRAPGESTYADLPIAPFGEVPTRFHIDMEVEDRVGVLADLAKTFSNHGISLRTVRQAEKDGHARLIVVTHTAKESELEATVEQIKNSDSVKKINSVIRLAG | not soluble
9 | MLERILSRENLIQALERVEKNKGSYGVDEMDVKSLRLHLHENWTSIRNEIIEGSYFPKPVRRVEIPKPNGGVRKLGIPTVMDRFLQQAIAQILTQLYDPTFSERSFGFRPHRRGHNAVRQAKQWMKEGYRWVVDIDLEKFFDKVNHDRLMRKLSSRIQDPRVLQLIRRYLQTGVMERGLVSPNTEGTPQGGPLSPLLSNIVLDELDNELEKRGLKFVRYADDCNIYVRSKRAGLRIMESVTSFIENRLKLKVNREKSAVDRPWNRKFLGFSFTRGKDPKMRVSKESVKRLKQRIRELTSRRHSMKMSDRLRRLNRYLTGWLGYYQVVDTPSILAQIDAWIRRRLRMIRWKEWKTTSARQKNLVRLGIKKAKAWQWANSRKGYWRVAHSPIMDYALNSEYWKGQGLMSLAERYQTRRWTLEHHHHHH | soluble
10 | MEVKLWNDKREREMYENFAELFAIIKATEKLEKAYIRDLINPSEYESECQKLIVHFKTLSATLKDTVPNIERFADTYKMDCPAALYRLVTSGLPATVEHRATVAASTSNSASIVAECVQNFITSMDSLKLNMVAVDQVYPLLSDLSASLNKLSILPPDFEGKTKMKEWLSRLSKMGAADELTEQQSRQLHFDLESSYNSFMAALPKAGN | soluble
11 | MNNTIETILAHRSIRKFTAVPITDEQRQTIIQAGLAASSSSMLQVVSIVRVTDSEKRNELAQFAGNQAYVESAAEFLVFCIDYQRHATINPDVQADFTELTLIGAVDSGIMAQNCLLAAESMGLGGVYIGGLRNSAAQVDELLGLPENSAVLFGMCLGHPDQNPEVKPRLPAHVVVHENQYQELNLDDIQSYDQTMQAYYASRTSNQKLSTWSQEVTGKLAGESRPHILPYLNSKGLAKR | soluble
12 | MHIESPIKRRQSTRIYVGNVPIGDGAPIAVQSMTNTRTTDVDATVAQIKSLEKVGADIVRVSVPTMDAAEAFKVIKQQVSVPLVADIHFDYRIALQVAEYGVDCLRINPGNIGNEQRIRSVVDCARDKNIPIRIGVNGGSLEKDIQAKYKEPTAEALLESAMRHVDILDRLNFDQFKVSVKASDVFLAVDSYRLLAKQIAQPLHLGITEAGGARAGSVKSAVGLGMLLSEGIGDTLRISLAADPVEEIKVGFDILKSLRIRSRGINFIACPTCSRQEFDVIATVNELEQRLEDLITPMDVSLIGCVVNGPGEAEVSHMGIAGSNRKSAFYEDGVRQKERFDNDNIVDQLEAKIRAKAATLSKENQIDINQID | not soluble
13 | MGHHHHHHSHDHYGCKQCSSLRSIQNLNSLVDKTSWIPSSVAEALGIVPLQYVFVMTFTLDDGTGVLEAYLMDSDKFFQIPASEVLMDDDLQKSVDMIMDMFCPPGIKIDAYPWLECFIKSYNVTNGTDNQICYQIFDTTVAEDVI | not soluble
14 | MTMPVNTIMGLFAKSPIKPLQRHVVCVNECCSHLINFFEVCNKGDWEKAGEIRAQISHLEKEADVLKREIRLKLPRGLFMPVDRSDMLELLTQQDKLANLAKDIAGRVYGRQLVIPEPLQENFIAYVRRCLDAANQAQNVINELDELLETGFKGREVTLVAEMIHQLDVIEDDTDSMQIRLRQQLMAIESKMNPIDVMFLYKILEWVGGIADQAQRVGARLELMLSRS | not soluble
15 | SDTMKVETIGKEIIKPSATTPTDLSTLQLSIMDILMPPVYAVAFLFYTKDDLISQEQTSHTLKTSLSEILTKFHPLAGRVNGVTIKSTDEGAVFVEARVDNCDLSGFLRSPDTESLKQLLPVDDEPAPTWPLLLVKATYFRCGGMAIGLCISHRLADAASLSIFLQAWAATARGESDLVASPDFCSTKLYPAANEAIKIPGEVVNRTSVTKRFVFVASKIEELRNKVASDVVPRPTRVQSVTSLIWKCVVTASTDTIREKALFQPANLRTKIPSLLSENQIGNLLFNSLILDGKAGMDIVETVKELQKRAEDLSGLVQDEEGSSMTIGWRLFGEIINSKFNREDHDMHSVTSWCKIPLYDACFGWGSPVWVAGSVSPNLDYVTVLIDSKDGQGIEAWVTLPQENMLLLEQSTELLAFASPNPSVLI | soluble
16 | NTWKIFVGNVSAACTSQELRSLFERRGRVIECDVVKDYAFVHMEKEADAKAAIAQLNGKEVKGKRINVELSTKGQKK | soluble
17 | MSLKTIITNLKVYILKGPKEKRPHWVSNFIVPNANELLVILETNQGVEGFGLATSYTDMSPIVHVIESGISEKILGCNPLEPEMLYQSLFNLTASRLAYEKGWSREALIRVSAAVDIACWDIIGKISGLPLYQLFGGFRNKVPCYVTCAYYREGKDHAELKDEIQMLVDQGHQGFKAKVGGLSLAEDLERMELVREIIGPERDLMIDVNRAWDLKTAIEGARLLEPLKPTWLEEPVRWMDDRRELKILAQHTSIPLSGGESESTSYGCRTMIDEKAIQILQFDCTMFGGFTEGRKMTALCDLNHVDVAPHHDCFIHAPLVASSPAGRIVESFTDPERDPLQAELFENPPNIEKGWLTLNEAQGLGLTLSENALAKFGTQIIEGHHHHHH | soluble
18 | MLNSEKMIASLDQQDLAHAEKYFQKALKEDDADSLIALGEYLESIGFLPHAKRIYLQLADDYPELNINLAQIAAEDDAIEEAFLYLDKVSKDSPNYLSALLVMADLYDMEGLTEVAREKLLQAVGISPEPLVIFGLAEIDMSLQHFKEAIDYYAQLDNRQILELTGISTYQRIGRAYASLGKFEAAIEFLEKAVAIEYEDETVFELATLMYDQENYQKANLYFKQLETINPDYPGYEYGYALSLHEEHKTSEALRLVQQGLRKNAFDSQLLLLASQLSYELHDRQNAENYLLQAKEVAVDDEEILMRLVTLYFDAERFEEVIALNRETIDNVLTKWTIAKAYHALEQEEVALALYNEISADLAENPEFLQDYAYLLREFGQFHKAIQMATAYLRQVPDDVNMQDFLDHIKHQQSE | not soluble
19 | MGHHHHHHSHMEALARLHLTVTRAYKVNTDINFEVFIHKVDGLSDDHKIETQRDIHQRANDDLADAGLEKIHLSFYLTSIYDHSIFEAFSKVVQKLIPQLPTLENLLNIFISNSGIEKAFLFDVVSKIYIATDSTPVDMQTYELCCDMIDVVIDISCIYGLKEDGAGTPYDKESTAIIKLNNTTVLYLKEVTKFLALVCFVREESFERKGLIDYNFHCFRKAIHEVFEVRMKVVKSRKVQNRLQKKKRATPNGTPRVLL | soluble
